The Human Domainome abundance scans (Beltran et al. 2025)
± gives the uncertainty stated by the source.

B1: GAS2-like protein 1, residues 209 to 276; numbered along this chain, Q99501 (parent)
chain: DELVREILGRCTCPDQFPMIKVSEGKYRVGDSSLLIFVRVLRSHVMVRVGGGWDTLEHYLDKHDPCRC
B2: E3 ubiquitin-protein ligase TRIM36, residues 208 to 252; numbered along this chain, Q9NQ86 (parent)
chain: KILMCPEHETERINMYCELCRRPVCHLCKLGGNHANHRVTTMSSA

Variants of: B1
Assay: abundance fitness (aPCA) (normalised: wild type 0, dead -1); higher = more abundant; growth selection in yeast, the domain comes from the species named
Conditions: Homo sapiens

PELVREILGRCTCPDQFPMIKVSEGKYRVGDSSLLIFVRVLRSHVMVRVGGGWDTLEHYLDKHDPCRC [D1P] and NELVREILGRCTCPDQFPMIKVSEGKYRVGDSSLLIFVRVLRSHVMVRVGGGWDTLEHYLDKHDPCRC [D1N] are within error of each other in abundance fitness: -0.517 ± 0.48 for the first, -0.536 ± 0.13 for the second.

CELVREILGRCTCPDQFPMIKVSEGKYRVGDSSLLIFVRVLRSHVMVRVGGGWDTLEHYLDKHDPCRC [D1C] and YELVREILGRCTCPDQFPMIKVSEGKYRVGDSSLLIFVRVLRSHVMVRVGGGWDTLEHYLDKHDPCRC [D1Y] are within error of each other in abundance fitness: -0.657 ± 0.23 for the first, -0.574 ± 0.15 for the second.

Going from SELVREILGRCTCPDQFPMIKVSEGKYRVGDSSLLIFVRVLRSHVMVRVGGGWDTLEHYLDKHDPCRC [D1S] to TELVREILGRCTCPDQFPMIKVSEGKYRVGDSSLLIFVRVLRSHVMVRVGGGWDTLEHYLDKHDPCRC [D1T], the abundance fitness falls from -0.205 ± 0.13 to -0.707 ± 0.15.

WELVREILGRCTCPDQFPMIKVSEGKYRVGDSSLLIFVRVLRSHVMVRVGGGWDTLEHYLDKHDPCRC [D1W] and VELVREILGRCTCPDQFPMIKVSEGKYRVGDSSLLIFVRVLRSHVMVRVGGGWDTLEHYLDKHDPCRC [D1V] are within error of each other in abundance fitness: -0.621 ± 0.17 for the first, -0.653 ± 0.12 for the second.

KELVREILGRCTCPDQFPMIKVSEGKYRVGDSSLLIFVRVLRSHVMVRVGGGWDTLEHYLDKHDPCRC [D1K] and AELVREILGRCTCPDQFPMIKVSEGKYRVGDSSLLIFVRVLRSHVMVRVGGGWDTLEHYLDKHDPCRC [D1A] are within error of each other in abundance fitness: -0.233 ± 0.23 for the first, -0.623 ± 0.28 for the second.

Going from HELVREILGRCTCPDQFPMIKVSEGKYRVGDSSLLIFVRVLRSHVMVRVGGGWDTLEHYLDKHDPCRC [D1H] to EELVREILGRCTCPDQFPMIKVSEGKYRVGDSSLLIFVRVLRSHVMVRVGGGWDTLEHYLDKHDPCRC [D1E], the abundance fitness rises from -0.693 ± 0.24 to -0.087 ± 0.2.

LELVREILGRCTCPDQFPMIKVSEGKYRVGDSSLLIFVRVLRSHVMVRVGGGWDTLEHYLDKHDPCRC [D1L] and FELVREILGRCTCPDQFPMIKVSEGKYRVGDSSLLIFVRVLRSHVMVRVGGGWDTLEHYLDKHDPCRC [D1F] are within error of each other in abundance fitness: -0.761 ± 0.14 for the first, -0.55 ± 0.4 for the second.

GELVREILGRCTCPDQFPMIKVSEGKYRVGDSSLLIFVRVLRSHVMVRVGGGWDTLEHYLDKHDPCRC [D1G] and RELVREILGRCTCPDQFPMIKVSEGKYRVGDSSLLIFVRVLRSHVMVRVGGGWDTLEHYLDKHDPCRC [D1R] are within error of each other in abundance fitness: -0.596 ± 0.17 for the first, -0.624 ± 0.2 for the second.

DCLVREILGRCTCPDQFPMIKVSEGKYRVGDSSLLIFVRVLRSHVMVRVGGGWDTLEHYLDKHDPCRC [E2C] and DPLVREILGRCTCPDQFPMIKVSEGKYRVGDSSLLIFVRVLRSHVMVRVGGGWDTLEHYLDKHDPCRC [E2P] are within error of each other in abundance fitness: -0.282 ± 0.091 for the first, -0.218 ± 0.097 for the second.

DFLVREILGRCTCPDQFPMIKVSEGKYRVGDSSLLIFVRVLRSHVMVRVGGGWDTLEHYLDKHDPCRC [E2F] and DHLVREILGRCTCPDQFPMIKVSEGKYRVGDSSLLIFVRVLRSHVMVRVGGGWDTLEHYLDKHDPCRC [E2H] are within error of each other in abundance fitness: 0.1 ± 0.17 for the first, -0.006 ± 0.2 for the second.

First: DDLVREILGRCTCPDQFPMIKVSEGKYRVGDSSLLIFVRVLRSHVMVRVGGGWDTLEHYLDKHDPCRC [E2D]
Second: DSLVREILGRCTCPDQFPMIKVSEGKYRVGDSSLLIFVRVLRSHVMVRVGGGWDTLEHYLDKHDPCRC [E2S]
The abundance fitness of the first is higher: 0.149 ± 0.083 for the first, -0.06 ± 0.089 for the second.

Compared with DNLVREILGRCTCPDQFPMIKVSEGKYRVGDSSLLIFVRVLRSHVMVRVGGGWDTLEHYLDKHDPCRC [E2N], DMLVREILGRCTCPDQFPMIKVSEGKYRVGDSSLLIFVRVLRSHVMVRVGGGWDTLEHYLDKHDPCRC [E2M] is lower in abundance fitness: 0.073 ± 0.076 for the first, -0.224 ± 0.087 for the second.

DKLVREILGRCTCPDQFPMIKVSEGKYRVGDSSLLIFVRVLRSHVMVRVGGGWDTLEHYLDKHDPCRC [E2K] and DRLVREILGRCTCPDQFPMIKVSEGKYRVGDSSLLIFVRVLRSHVMVRVGGGWDTLEHYLDKHDPCRC [E2R] are within error of each other in abundance fitness: 0.031 ± 0.072 for the first, 0 ± 0.064 for the second.

With DALVREILGRCTCPDQFPMIKVSEGKYRVGDSSLLIFVRVLRSHVMVRVGGGWDTLEHYLDKHDPCRC [E2A] the abundance fitness was -0.263 ± 0.057.

Variants of: B2
Assay: as above
Conditions: Homo sapiens

KILMCPEHETERINMYCELCRRPVCHLCKLGGNHANHRVTTMSVA [S44V] and KILMCPEHETERINMYCELCRRPVCHLCKLGGNHANHRVTTMSPA [S44P] are within error of each other in abundance fitness: -0.047 ± 0.052 for the first, 0.034 ± 0.056 for the second.

KILMCPEHETERINMYCELCRRPVCHLCKLGGNHANHRVTTMSQA [S44Q] and KILMCPEHETERINMYCELCRRPVCHLCKLGGNHANHRVTTMSTA [S44T] are within error of each other in abundance fitness: -0.038 ± 0.069 for the first, -0.028 ± 0.057 for the second.

Compared with KILMCPEHETERINMYCELCRRPVCHLCKLGGNHANHRVTTMSRA [S44R], KILMCPEHETERINMYCELCRRPVCHLCKLGGNHANHRVTTMSWA [S44W] is lower in abundance fitness: -0.1 ± 0.05 for the first, -0.274 ± 0.073 for the second.

KILMCPEHETERINMYCELCRRPVCHLCKLGGNHANHRVTTMSSC [A45C] and KILMCPEHETERINMYCELCRRPVCHLCKLGGNHANHRVTTMSSN [A45N] are within error of each other in abundance fitness: -0.482 ± 0.1 for the first, -0.549 ± 0.46 for the second.

KILMCPEHETERINMYCELCRRPVCHLCKLGGNHANHRVTTMSSQ [A45Q] and KILMCPEHETERINMYCELCRRPVCHLCKLGGNHANHRVTTMSSD [A45D] are within error of each other in abundance fitness: -0.21 ± 0.2 for the first, 0.078 ± 0.16 for the second.

Compared with KILMCPEHETERINMYCELCRRPVCHLCKLGGNHANHRVTTMSSG [A45G], KILMCPEHETERINMYCELCRRPVCHLCKLGGNHANHRVTTMSSM [A45M] is lower in abundance fitness: 0.023 ± 0.062 for the first, -0.232 ± 0.099 for the second.

KILMCPEHETERINMYCELCRRPVCHLCKLGGNHANHRVTTMSSS [A45S] and KILMCPEHETERINMYCELCRRPVCHLCKLGGNHANHRVTTMSSV [A45V] are within error of each other in abundance fitness: -0.074 ± 0.084 for the first, -0.091 ± 0.076 for the second.

KILMCPEHETERINMYCELCRRPVCHLCKLGGNHANHRVTTMSSR [A45R] and KILMCPEHETERINMYCELCRRPVCHLCKLGGNHANHRVTTMSST [A45T] are within error of each other in abundance fitness: -0.112 ± 0.094 for the first, -0.143 ± 0.084 for the second.

KILMCPEHETERINMYCELCRRPVCHLCKLGGNHANHRVTTMSSL [A45L] and KILMCPEHETERINMYCELCRRPVCHLCKLGGNHANHRVTTMSSP [A45P] are within error of each other in abundance fitness: -0.156 ± 0.17 for the first, 0.015 ± 0.099 for the second.

In the case of KILMCPEHETERINMYCELCRRPVCHLCKLGGNHANHRVTTMSSK [A45K], the abundance fitness is reported as -0.265 ± 0.36.
